The text below walks through data of the nanobody polyreactivity screen of Harvey et al. (2022).

The nature of the data set: yeast display, Sf9 membrane polyspecificity reagent, FACS + sequencing; frameworks hold sequencing errors. In outline: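 A nanobody's polyreactivity label depends on the gate it was sorted from. Yeast display cells were stained with 10% biotinylated, detergent-solubilized Sf9 membrane reagent for 1 hour at 4 °C, enriched on streptavidin microbeads and sorted by FACS. The low and high (top ~1%) gates were set on anti-HA fluorescence for expression and streptavidin fluorescence for reagent binding.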
As to “QVQLVESGGGLVQAGGSLRLSCAASGSIFKENAMGWYRQAPGKERELVAAITSSGGNTYYADSVKGRFTISRDHAKNTVYIQMNSLKPEDTAVYYCNAGVPVRSTTTDGYWGQGTQVNVSS”, the “polyreactivity (PSR sort gate)” value is “high polyreactivity”.
With “QVQLVESGGGLVQAGGSLRLSCAASGSIFKEYAMGWYRQAPGKERELVATISWSGGSTYYADSVKGRFTISRDNAKNTVYLQMNSLKPEDTAVYYCNKSTPWWYVVRYDYWGQGTQVTVSS” the entry was “high polyreactivity”; with “QVQLVESGGGLVQAGGSLRLSCAASGSIFKHNDMGWYRQAPGKERELVAAISRSGGATYYAHSVKGRFTISRDNAKNTVYLQMNSLKPEDTAVYYCNAGRRTARYGYWGQGTQVTVSS”, “high polyreactivity”; with “QVQLVESGGGLVQAGGSLRLSCAASGSIFKKYAMGWYRQAPGKERELVAAISKSGGSTYYADSVKGRFTISRDNAKNTVYLQMNSLKPEDTAVYYCAAAAGGSAYWDYDYWGQGTQVTVSS”, “low polyreactivity”.
With “QVQLVESGGGLVQAGGSLRLSCAASGSIFKLNAMGWYRQAPGKERELVAAISRGGRKYYADSVKGRFTISRDNAKNTVYLQMNSLKPEDTAVYYCAADASSQIWYYPRDDYWGQGTQVTVSS” the entry was “low polyreactivity”.
On to “QVQLVESGGGLVQAGGSLRLSCAASGSIFKRNAMGWYRQAPGKERELVASITWRGGRTYYADSVKGRFTISRDNAKNTVYLQMNILKPEDTAVYYCATTQYTSHYDAYGYWGQGTQVTVSS”, for which the “polyreactivity (PSR sort gate)” value is given as “high polyreactivity”.
With “QVQLVESGGGLVQAGGSLRLSCAASGSIFKRNAMGWYRQAPGKERQLVASISWSGSRTYYADSVKGRFTISRDNAKNTVYLQMISLKPEDTAVYYCARRIYGGHPSQSTQGDFYYWGQGTQVTVSS”, the “polyreactivity (PSR sort gate)” value is reported as “high polyreactivity”.
With “QVQLVESGGGLVQAGGSLRLSCAASGSIFKRNVMGWYRQAPGKERELVAAITWSGASTYYADSVKGRFTISRDNAKITVYLQMNSLKPEDTAVYYCAARGPSRRRDGSDYWGQGTQVTVSS” the entry was “high polyreactivity”; with “QVQLVESGGGLVQAGGSLRLSCAASGSIFKSNAMGWYRQAPGKERELVAGISWGGGSTYYADSVKGRFTISRDNAKNTVYLQMNSLKPEDTAVYYCAAYVYYRPSALAVTGDYYWGQGTQVTVSS”, “low polyreactivity”.
In the case of “QVQLVESGGGLVQAGGSLRLSCAASGSIFKSYAMGLYRQAPGKEREFVASITKSGGTTYYADSVKGRFTISRDNAKNTVYLQMNSLKPEDTAVYYCAADWYRSSWTYNYWGQGTQVTVSS”, the “polyreactivity (PSR sort gate)” value was “low polyreactivity”.
In the case of “QVQLVESGGGLVQAGGSLRLSCAASGSIFKSYAMGWYRQAPGKERELVAAISWSGTSTYYADSVKGRFTISRDHAKNTVYLQMNSLKPEDTAVYYCAASGDYGEYGYWGQGTQVTVSS” it was “low polyreactivity”.
Consider “QVQLVESGGGLVQAGGSLRLSCAASGSIFKSYAMGWYRQAPGKERELVAAITYRGGSTYYADSVKGRFTISRDNAKNTVYLQMNSLKPEDTAVYYCAKDQHRYYQVWGDYWGQGTQVTVSS”, for which the “polyreactivity (PSR sort gate)” value is “high polyreactivity”.
For “QVQLVESGGGLVQAGGSLRLSCAASGSIFKSYAMGWYRQAPGKERELVAVISDSGSTYYADSVKGRFTISRDNAKNTVYLQMNSLKPEDTAVYYCRCRGRRNEYWGQGTQVTVSS”, the “polyreactivity (PSR sort gate)” value is on record as “high polyreactivity”.
Regarding “QVQLVESGGGLVQAGGSLRLSCAASGSIFKTNAMGWYRQAPGKERELVAGISNGGSTNYADSVKGRFTISRDNAKNTVYLQMNSLKPEDTAVYYCAKKGYASRYFIYDYWGQGTQVTVSS”, the “polyreactivity (PSR sort gate)” value is given as “low polyreactivity”.
With “QVQLVESGGGLVQAGGSLRLSCAASGSIFKTYAMGWYRQAPGKERELVAAITSSGGSTYYADSVKGRFTISRDNAKNTVYLQMNSLKPEDTAVYYCNARYWGYWGDHYDYWGQGTQVTVSS” the entry was “high polyreactivity”; with “QVQLVESGGGLVQAGGSLRLSCAASGSIFKVYAMGWYRQAPGKERELVAAISRGGSTYADSVKGRFTISRDNAKNTVYLQMISLKPEDTAVYYCNATVGRIYVTRYDYWGQGTQVTVSS”, “high polyreactivity”.
With “QVQLVESGGGLVQAGGSLRLSCAASGSIFKYNAMGWYRQAPGKEREFVAAISRSGGSTYYADSVKGRFTISRDNAKNTVYLQMNSLKPEDTAVYYCATTSRYSWSDYWGQGTQVTVSS” the entry was “high polyreactivity”; with “QVQLVESGGGLVQAGGSLRLSCAASGSIFKYYALGWYRQAPGKERELVAAITSGVSTYADSVKGRFTISRDNAKNTVYLQMNSLKPEDTAVYYCAVRVTGPRGDYWGQGTQVTVSS”, “low polyreactivity”.
With “QVQLVESGGGLVQAGGSLRLSCAASGSIFKYYAMGWYRKAPGKERELVAAISYRVGRTYYADSVKGRFTISRDNAKNTVYLQMNSLKPEDTAVYYCNTAYLSGQEYDYWGQGTQVTVSS” the entry was “high polyreactivity”; with “QVQLVESGGGLVQAGGSLRLSCAASGSIFKYYAMGWYRQAPGKEREFVAAITRSGGSTYYADSVKGRFTISRDNAKNTVYLQMNSLKPEDTAVYYCAARSYARPGGSRFDYWGQGTQVTVSS”, “high polyreactivity”; with “QVQLVESGGGLVQAGGSLRLSCAASGSIFKYYAMGWYRQAPGKERELVAAISSGGRTNYADSVKGRFTISRDNAKNTVYLQMNSLKPEDTAVYYCAAGWYRKHRQPSGVGGDYWGQGTQVTVSS”, “high polyreactivity”.
Consider “QVQLVESGGGLVQAGGSLRLSCAASGSIFKYYAMGWYRQAPGKERELVAAISSSGGSTYYADSVKGRFTISRDYAKYTVYCQMNSLKPQDTAVYYCNTPYIWKNYDYWGQGSQVTVSS”, for which the “polyreactivity (PSR sort gate)” value is given as “high polyreactivity”.
On to “QVQLVESGGGLVQAGGSLRLSCAASGSIFKYYSMGWYRQAPGKERELVADISRSGGRTYYADSVKGRFTISRDNAKNTVYLQMNSLKPEDTAVYYCAALDTYQYFRILYGTYEYWGQGTQVTVSS”, for which the “polyreactivity (PSR sort gate)” value is given as “high polyreactivity”.
“QVQLVESGGGLVQAGGSLRLSCAASGSIFKYYTMGWYRQAPGKERELVSGISYRGGSTYYADSVKGRFTISRDNAKNTVYLQMNSLKPEDTAVYYCATGSGFSPRRNTFRYGYWGQGTQVTVSS”: the “polyreactivity (PSR sort gate)” value was “high polyreactivity”.
With “QVQLVESGGGLVQAGGSLRLSCAASGSIFLAYAMGWDRQAPGKEREFVAAITWSGDSTYYADSVKGRFTISRDNAKNTVYLQMNSLKPEDTAVYYCAADYFGGPSYEFDYWGQGTQVTVSS” the entry was “low polyreactivity”.
With “QVQLVESGGGLVQAGGSLRLSCAASGSIFLAYAMGWYRQAPGKEREFVAAISFSDGSTYYADSVKGRFTISRDNAKNTVYLQMNSLKPEDTAVYYCNKGASPVDYDYWGQGTQVTVSS” the entry was “low polyreactivity”; with “QVQLVESGGGLVQAGGSLRLSCAASGSIFLGNAMGWYRQAPGKERELVAGITNGDNTNYADSVKGRFTISRDNAKNTDYLQMNSLKPEDTAVYYCATGPYLIYDYWGQGTQVTVSS”, “low polyreactivity”; with “QVQLVESGGGLVQAGGSLRLSCAASGSIFLGYTMGWYRPAPGKERELVAAISTRGGSTYYADSVKGRFTISRDNAKNTVYLQMNSLKPEDTAVYYCKARSRGRASGYDYWGQGTQVTVSS”, “high polyreactivity”.
Take “QVQLVESGGGLVQAGGSLRLSCAASGSIFLHNAMGWYRQAPGKDRELVAAISGTGGRTYYADSVKGRFTISRDNAKNTVYLQMNSLKPEDTAVYYCAKAARTRGGYGYWGQGTQVTVSS”: the “polyreactivity (PSR sort gate)” value is given as “high polyreactivity”.
As to “QVQLVESGGGLVQAGGSLRLSCAASGSIFLIYAMAWYRQAPGKERELVAAISSGGSTYYADSVKGRFTISRDNAKNTVYLQMNSLKPEDTAVYYCATYSTSVAYHLYYWGQGTQVTVSS”, the “polyreactivity (PSR sort gate)” value is “low polyreactivity”.
